One substance from patent publication US5534418 can be followed below.

This data set has as its system T3 receptor (thyroid hormone receptor, GC2 pituitary cell nuclear extract) (Rattus norvegicus). In words: pulldown. The note with it: equilibrium binding constant printed as 1.4x10^-9 M, ABCD assay, poly(dI-dC), 22 C, data not shown.

A word on the Kd: it is a measure of binding affinity in units of concentration. A lower Kd goes with tighter binding. On to G209-146 rat GH enhancer probe, for which the Kd worked out at 1.4 nM.
